Data from patent US20040248244.

Tests used:
[1] = target: GST-hUpf11019-1118 (GST fused to the carboxyl-terminal region of hUpf1, amino acids 1019-1118) (UniProt Q92900)
[2] = tested on: GST fusion protein containing the first 70 amino acids of p53 (GST-p531-70)
[3] = target: PHAS-I/4E-BP1 protein (UniProt Q13541)
[4] = tested on: GST-p531-70(S15A)

Sequence of GST fusion protein containing the first 70 amino acids of p53 (GST-p531-70) (chain, as listed by the source): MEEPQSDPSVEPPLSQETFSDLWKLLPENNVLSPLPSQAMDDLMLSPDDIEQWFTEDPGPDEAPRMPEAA
Sequence of GST-hUpf11019-1118 (GST fused to the carboxyl-terminal region of hUpf1, amino acids 1019-1118) (Q92900 1019-1118): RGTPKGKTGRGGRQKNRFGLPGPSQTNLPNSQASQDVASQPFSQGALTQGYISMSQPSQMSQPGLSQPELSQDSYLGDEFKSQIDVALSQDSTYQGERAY
Sequence of PHAS-I/4E-BP1 protein (Q13541 whole entry): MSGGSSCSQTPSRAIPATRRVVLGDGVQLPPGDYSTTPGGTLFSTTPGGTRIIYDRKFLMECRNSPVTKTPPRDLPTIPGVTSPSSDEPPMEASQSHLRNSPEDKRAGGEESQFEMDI

Row | Substance | phosphorylation of substrate in immune complex kinase assay [1] | specific kinase activity in immune complex kinase assay [2] | phosphorylation of substrate in immune complex kinase assay [3] | phosphorylation of substrate in immune complex kinase assay [4] | phosphorylation of substrate in immune complex kinase assay, compared with GST-hUpf11019-1118 [2] | specific kinase activity in immune complex kinase assay (ratio of 32P incorporation into substrate to level of HA-tagged kinase) [2]
1 | HA-tagged wild-type ATM (HA-ATMWT) | phosphorylated by both ATM and ATX | the specific kinase activity of HA-ATXWT towards GST-p531-70 was significantly higher than that of HA-ATM | – | – | – | –
2 | HA-tagged wild-type ATX (HA-ATXWT) | phosphorylated by both ATM and ATX, with the latter protein kinase showing the higher specific catalytic activity | – | poorly phosphorylated | nearly abolished | GST-p531-70 was more avidly phosphorylated by ATX than was the GST-hUpf11019-1118 substrate | the specific kinase activity of ATXWT was approximately 3.5-fold higher than that of ATMWT
